Source: paper PMC9652393, “Differential impact of ubiquitous and muscle dynamin 2 isoforms in muscle physiology and centronuclear myopathy” (Nature Communications, 2022)

B1: Human ubiquitous dynamin 2 isoform (Ub-DNM2), recombinant (natural protein, UniProt P50570-2 1-866, looked up)
chain: MGNRGMEELIPLVNKLQDAFSSIGQSCHLDLPQIAVVGGQSAGKSSVLENFVGRDFLPRGSGIVTRRPLILQLIFSKTEHAEFLHCKSKKFTDFDEVRQEIEAETDRVTGTNKGISPVPINLRVYSPHVLNLTLIDLPGITKVPVGDQPPDIEYQIKDMILQFISRESSLILAVTPANMDLANSDALKLAKEVDPQGLRTIGVITKLDLMDEGTDARDVLENKLLPLRRGYIGVVNRSQKDIEGKKDIRAALAAERKFFLSHPAYRHMADRMGTPHLQKTLNQQLTNHIRESLPALRSKLQSQLLSLEKEVEEYKNFRPDDPTRKTKALLQMVQQFGVDFEKRIEGSGDQVDTLELSGGARINRIFHERFPFELVKMEFDEKDLRREISYAIKNIHGVRTGLFTPDLAFEAIVKKQVVKLKEPCLKCVDLVIQELINTVRQCTSKLSSYPRLREETERIVTTYIREREGRTKDQILLLIDIEQSYINTNHEDFIGFANAQQRSTQLNKKRAIPNQVIRRGWLTINNISLMKGGSKEYWFVLTAESLSWYKDEEEKEKKYMLPLDNLKIRDVEKGFMSNKHVFAIFNTEQRNVYKDLRQIELACDSQEDVDSWKASFLRAGVYPEKDQAENEDGAQENTFSMDPQLERQVETIRNLVDSYVAIINKSIRDLMPKTIMHLMINNTKAFIHHELLAYLYSSADQSSLMEESADQAQRRDDMLRMYHALKEALNIIGDISTSTVSTPVPPPVDDTWLQSASSHSPTPQRRPVSSIHPPGRPPAVRGPTPGPPLIPVPVGAAASFSAPPIPSRPGPQSVFANSDLFPAPPQIPSRPVRIPPGIPPGVPSRRPPAAPSRPTIIRPAEPSLLD
notes: dynamin 2 (DNM2), human, ubiquitous isoform; same variant of exon 10 as the M-DNM2 plasmid; No tag is stated for the pVL1392 constructs; also called WT Ub-DNM2

Assays:
[1] = biological target: B1; experiment: pull-down; GST-SH3 of BIN1 (0.16, 0.4 or 1.6 ml supernatant) bound to GSH-Sepharose overnight, washed with 300 mM NaCl, 50 mM Tris pH 8.0, 5 mM imidazole, 1 mM DTT; 0.07 mg purified M-DNM2 or Ub-DNM2 added for 20 min, washed; resin loaded on SDS-PAGE; conditions: both partners purified
[2] = biological target: the molecule itself; experiment: SEC-MALS; Superose 6 10/300 GL; 20 mM HEPES pH 7.4, 1.5 M NaCl, 1 mM EGTA, 1 mM DTT, 5% glycerol; 4 °C, 0.5 ml/min

| Binder | binding result [1] | binding result [2] |
| --- | --- | --- |
| Human SH3 domain of BIN1 with Glutathione S-transferase (GST) tag (domain or fragment, UniProt O00499 520-593, looked up, amphiphysin 2 (BIN1), human, SH3 domain; The methods also describe cutting off the GST tag with PreScission on the beads; also called GST-SH3; GST-SH3 of BIN1) GFMFKVQAQHDYTATDTDELQLKAGDVVLVIPFQNPEEQDEGWLMGVKESDWNQHKELEKCRGVFPENFTERVP | binds |  |
| B1 |  | binds |
